Target: the molecule itself
Test: cryo-EM structure; single-particle cryoEM of purified full-length T. terrestris Sec7 with 2 mM fluorinated fos-choline 8; C2 symmetry for the dimer consensus map (5.3 Å), focused monomer map 3.7 Å, composite dimer model

B1: full-length Sec7 from Thielavia terrestris (natural protein)
chain: MEQKLISEEDLNSAVDHHHHHHRIPGLINSSLKFVVSSLDIIAAQAGRNKQLAELAEKALAAIKENDQQLPDPEVVFAPLQLATKSGTIPLTTTALDCIGKLISYSYFSAPSSSATQDGTEQTPLIERAIDTICDCFQGETTLVEIQLQIVKSLLAAVLNDKIIVHGAGLLKAVRQVYNIFLLSRSTANQQVAQGTLTQMVGTVFERVKTRLHMKEARANLGRLKASRSSLAVDRSDDQDSQAGKVDGEDATVETVSDATPSESVDKAGGGKLTLKDLEHRKSFDDSHMGDGPTMVSQVKPMKKASRSVSEQSLQESPQDETPESLDAEDEAYIRDAYLVFRSFCNLSTKILPPDQLYDLRGQPMRSKLISLHLIHTLLNNHITVFTSPLCTIRNTKNNEPTNFLQAIKYYLCLSITRNGASSVDRVFDICCEIFWLMLKYMRSSFKNEIEVFLNEIYLALLARRNAPLSQKLTFVGILKRLCEDPRALVELYLNYDCNQNVDNIFQTIVEDLSRFATASVPITPTQEQQYEESRSKSATAGEWQIKSVLPPPLSVALIATNHEADTELPKEYVMKRTALDSLVETLRSLVHWSQPGRPELNGASGDVQRRTSSDDLGDSIDPSMSETASRMEVPIAPATPVIDDDPDQLEKEKARKTAMTNAIKVFNFKPKHGIKLLIKEGFIPSDKPEDIARFLLREERLDKAQIGEYLGEGDQKNVDIMHAFVDMMDFSKKRFVDALREFLQAFRLPGEAQKIDRFMLKFAHRYVTGNPNAFANADTPYVLAYSVIMLNTDLHSSKVVKRMSKAEFIKNNRGINDNADLPDEYLIGIYDDIASNEIVLKSEREAAAAAGTLPAQSTGLAGLGQAFSNVGRDLQREAYVQQSEEISLRSEQLFRDLYRSQRKSATKGGVKFISATSFKHVGPMFDATWMSFFSTLSSLVQKTHNLDVNKLCLEGMKLATKIACLFDLSTPREAFISMLKNTANLNNPREMQAKNVEALKVLLDLAQTEGNYLKESWKDVLLCISQLDRLQLISGGVDESAVPDVSRARFVPPPRTETGESRKSTSSARRTRPRAHTGPQGVSLEIALESRSDEVIKSVDRIFTNTANLSRDAIIHFARALTEVSWDEIKVSGSNDSPRTYSLQKIVEISYYNMTRVRFEWSHIWDVLGEHFNRVGCHANTAIVFFALDSLRQLSMRFMEIEELAGFKFQKDFLKPFEHVMSNSSNVTVKDMVLRCLIQMIQARGENIRSGWRTMFGVFTVAAREPYESIVNLAYENVTQVYKTRFGVVISQGAFTDLIVCLTEFSKNMRFQKKSLQAMETLKSVIPTMLKTPECPLSQHKPTATTASGSESHSKKAAVQQTRTSVEEGFWFPVLFAFHDVLMTGEDLEVRSNALNYFFETLLRYGGDFPPEFWDILWRQQLYPIFMVLRSRPEMTNALNHEELSVWLSTTMIQALRNMITLFTHYFDALEYMLDRFLELLALCICQENDTIARIGSNCLQQLILQNVTKFTAEHWAKIVGAFCELFERTTAYQLFSATTINSTASLSPPPSGLELGGPLSPTSATAPVDGKSLKINGVETNGQTPGAEPANGDADGNGTAAAAADASAPAATPQPQQGPAQQLEEFKPNNPLQQQPVVVTAARRRFFNRIISRCVLQLLMIETVNELFSNDAVYAQIPSAELLRLMALLKKSFLFAKRFNADKDLRMRLWREGFMKQPPNLLKQESGSAATYVAILFRMFGDTAPDRRGSRADVEAALVPLCRDIIRGYTALDDESQHRNIVAWRPVVVDVLEGYAAFPRDAFAAHIRSFYPLVVELLGKDLGQDLRAALLLVLRRVGEVGLGIEGMGSGGAAAAAAAGAAAASSGQGNGNGAAAAAADSERRSSVLSVPSGPRHTPSMDSLNDDPSRQVMGKAEQKLISEEDLNSAVDHHHHHH
  stoichiometry N: 2

— publication doi:10.1101/2023.11.22.568272, “Sec7 regulatory domains scaffold autoinhibited and active conformations” (bioRxiv, 2023)
